Data: US10907134B2, “Mutated genes for the catalytic protein of oplophorus luciferase and use thereof” (JNC CORPORATION, priority 2013, dated 2021)
Changes are numbered by the printed parent chain. Names and notes keep the numbering of the source.

B1: KAZ-A54I: KAZ with single amino acid substitution A54I, SEQ ID NO: 6 (protein)
chain: FTLADFVGDWQQTAGYNQDQVLEQGGLSSLFQALGVSVTPIQKVVLSGENGLKIDIHVIIPYEGLSGFQMGLIEMIFKVVYPVDDHHFKIILHYGTLVIDGVTPNMIDYFGRPYPGIAVFDGKQITVTGTLWNGNKIYDERLINPDGSLLFRVTINGVTGWRLCENILA
B2: KAZ-V44I-A54I-Y138I: KAZ mutant with three amino acid substitutions V44I, A54I and Y138I, SEQ ID NO: 16 (protein)
chain: B1 chain with V44I, Y138I
B3: KAZ-A54I-Y138I: KAZ mutant with two amino acid substitutions A54I and Y138I, SEQ ID NO: 14 (protein)
chain: B1 chain with Y138I
B4: KAZ-V44I-Y138I: KAZ mutant with two amino acid substitutions V44I and Y138I, SEQ ID NO: 12 (protein)
chain: B1 chain with V44I, I54A, Y138I
B5: KAZ-V44I-A54I: KAZ mutant with two amino acid substitutions V44I and A54I, SEQ ID NO: 10 (protein)
chain: B1 chain with V44I
B6: KAZ: wild 19 kDa catalytic protein of Oplophorus luciferase (19kOLase), amino acid sequence SEQ ID NO: 2 (protein, listed as Oplophorus gracilirostris)
chain: B1 chain with I54A
B7: KAZ-V44I: KAZ with single amino acid substitution V44I, SEQ ID NO: 4 (protein)
chain: B1 chain with V44I, I54A
B8: KAZ-Y138I: KAZ with single amino acid substitution Y138I, SEQ ID NO: 8 (protein)
chain: B1 chain with I54A, Y138I

Test: Luminescence activity of KAZ mutants (pCold II, E. coli) in supernatant and precipitate of crude enzyme solution
Assay type: biochemical
Details: for Relative Luminescence Activity (Imax) Precipitate / Relative Luminescence Activity (Imax) Supernatant / Luminescence activity in the supernatants, fold higher as compared to the wild KAZ: pCold II; for Relative Luminescence Activity (Imax) Precipitate / Relative Luminescence Activity (Imax) Supernatant: E. coli BL21, 60 seconds; for Relative Luminescence Activity (Imax) Precipitate: 5 μL precipitate; for Relative Luminescence Activity (Imax) Supernatant: 5 μL supernatant; for Luminescence activity in the supernatants, fold higher as compared to the wild KAZ: supernatant, coelenterazine (Table 8)
Experimental: In order to express the KAZ mutants in E. coli, the recombinant plasmid prepared in EXAMPLE 3 was used. The E. coli BL21 strain (Novagen, Madison, Wis.) was used as a host cell. The BL21 strain carrying the recombinant plasmid was incubated in 5 mL of Luria-Bertani medium (hereinafter designated as LB medium) containing ampicillin (50 μg/mL) at 37° C. for 18 hours. This seed culture, 0.1 mL, was inoculated to 10 mL of LB medium and incubated for 3 hours, followed by cooling in an ice-water bath for 1 hour. IPTG was added to the culture medium at a final concentration of 1 mM, followed by incubation at 15° C. for further 20 hours. After completion of the incubation, 1 mL of the cultured medium was harvested by centrifugation at 10,000 rpm for 2 minutes. The thus collected E. coli cells were suspended in 0.5 mL of 30 mM Tris-HCl (pH 7.6)-10 mM EDTA (manufactured by Wako Pure Chemical Industries, Ltd.) (hereinafter designated as TE). The E. coli cells were disrupted by sonication for 3 seconds using a Branson Model 250 Sonifier (Danbury, Conn.) to give a crude enzyme solution. After 0.5 mL of the crude enzyme solution was further centrifuged at 10,000 rpm for 2 minutes to separate the supernatant from the precipitate, the precipitate was suspended in 0.5 mL of TE. Then 20 μL each of the supernatant and precipitate were analyzed by SDS-PAGE to confirm the presence or absence of soluble and insoluble proteins. The results are shown in FIG. 1, wherein M and 1 to 17 denote: M: molecular weight size markers; 1: KAZ; 2 KAZ-A4E; 3: KAZ-Q11R; 4: KAZ-Q18L; 5: KAZ-L27V; 6: KAZ-A33N; 7: KAZ-K43R; 8: KAZ-V44I; 9: KAZ-A54I; 10: KAZ-F68D; 11: KAZ-L72Q; 12: KAZ-M75K; 13: KAZ-I90V; 14: KAZ-P115E; 15: KAZ-Q124K; 16: KAZ-Y138I; 17: KAZ-N166R and 18: dnKAZ.
A luminescence reaction was started by the addition of 5 μL each of the supernatant and precipitate obtained in EXAMPLE 4 to 100 μL of TE containing 0.5 μg of coelenterazine (manufactured by JNC Corp.). The luminescence activity was measured for 60 seconds using a luminometer (manufactured by Atto Corp.: AB2200) and expressed in terms of relative luminescence activity (Imax).
To express the KAZ mutants with two amino acid substitutions and three amino acid substitutions in E. coli using a pCold II vector, the recombinant plasmid constructed in EXAMPLE 13 and pCold-V44I-KAZ, pCold-A54I-KAZ, pCold-Y138I-KAZ prepared in EXAMPLE 3 were used. The supernatant and precipitate of each crude enzyme solution were prepared in the same manner as EXAMPLE 4, using the E. coli BL21 starin (Novagen, Madison, Wis.) as a host cell. The supernatant and precipitate, 20 μL each, were subjected to SDS-PAGE analysis to confirm the presence or absence of soluble proteins and insoluble proteins. In FIG. 3, M and 1 to 9 are as follows. M: molecular weight markers; 1: dnKAZ; 2: KAZ; 3: KAZ-V44I-A54I; 4: KAZ-V44I-Y138I; 5: KAZ-A54I-Y138I; 6: KAZ-V44I-A54I-Y138I; 7: KAZ-V44I; 8: KAZ-A54I; and 9: KAZ-Y138I.
The luminescence activities of 5 μL each of the supernatant and precipitate obtained in EXAMPLE 14 were determined in the same manner as EXAMPLE 5. The luminescence activity was assayed with a luminometer (manufactured by Atto Inc.: AB2200) for 60 seconds, and the maximum intensity of luminescence (Imax) was shown as relative luminescence activity.

Molecule | Relative Luminescence Activity (Imax) Precipitate (Table 3, 0.5 μg coelenterazine) | Relative Luminescence Activity (Imax) Supernatant (Table 3, 0.5 μg coelenterazine) | Relative Luminescence Activity (Imax) Precipitate (Table 8, coelenterazine) | Relative Luminescence Activity (Imax) Supernatant (Table 8, coelenterazine) | Luminescence activity relative to that of dnKAZ (pCold II crude enzyme solution, coelenterazine) | Luminescence activity in the supernatants, fold higher as compared to the wild KAZ
B1 | 13 | 150 | 13 | 151 | approximately 1/12 | 
B2 |  |  | 40 | 1,730 |  | 
B3 |  |  | 21 | 982 |  | 982 fold
B4 |  |  | 5.0 | 71 |  | 71 fold
B5 |  |  | 5.8 | 295 |  | 295 fold
B6 | 0.1 | 1.0 | 0.1 | 1.0 |  | 
B7 | 0.6 | 6.5 | 0.6 | 6.5 |  | 
B8 | 1.4 | 32 | 1.4 | 32 |  | 
